Test results from paper PMC7756140.

Columns and labels:
Assay in all cases: MST
CCR5^QTY – SZ190b (SF9) = target: CCR5^QTY – SZ190b (SF9)
[1] = target: CCR5^QTY – SZ218a (E. coli)
CCR5^QTY (E. coli) = target: CCR5^QTY (E. coli)
CCR5^QTY – SZ218a (SF9) = target: CCR5^QTY – SZ218a (SF9)
CCR5^QTY (SF9) = target: CCR5^QTY (SF9)
[2] = target: CCR5^QTY – SZ190b (E. coli)
CXCR4^QTY (E. coli) = target: CXCR4^QTY (E. coli)
[3] = target: CXCR4^QTY – SZ158a (E. coli)

Substance	Kd (CCR5^QTY – SZ190b (SF9)) [nM]	Kd [1] [nM]	Kd (CCR5^QTY (E. coli)) [nM]	Kd (CCR5^QTY – SZ218a (SF9)) [nM]	Kd (CCR5^QTY (SF9)) [nM]	Kd [2] [nM]	Kd (CXCR4^QTY (E. coli)) [nM]	Kd [3] [nM]
CCL5 (from UniProt P13501 24-91) (ligand)	37.8	87.7	6.8	51.7	41.1	55.8		
HIV-1 coat glycoprotein gp41-120							7	200
